One block for each molecule: values may come before it.
Key:
[1] = molecular target: Citrus sinensis salicylate methylesterase CsMES1 (recombinant, wild type) (Citrus sinensis); assay: SEC; analytical gel filtration on Superdex 75 10/300 in SEC buffer (137 mM NaCl, 10 mM Na2HPO4, 2.7 mM KCl, 2 mM KH2PO4, pH 7.5); mass estimated from standards (bovine serum albumin, ovalbumin, lysozyme)
[2] = molecular target: T1, CsMES1 V18A (Citrus sinensis, UniProt A0A067GV78, V18A); assay: biochemical; assay type: binding
T1 construct: gene CISIN_1g024065mg; recombinant CsMES1 (KDO79352) from pET28a in E. coli
T1 sequence (A0A067GV78 1-267 V18A): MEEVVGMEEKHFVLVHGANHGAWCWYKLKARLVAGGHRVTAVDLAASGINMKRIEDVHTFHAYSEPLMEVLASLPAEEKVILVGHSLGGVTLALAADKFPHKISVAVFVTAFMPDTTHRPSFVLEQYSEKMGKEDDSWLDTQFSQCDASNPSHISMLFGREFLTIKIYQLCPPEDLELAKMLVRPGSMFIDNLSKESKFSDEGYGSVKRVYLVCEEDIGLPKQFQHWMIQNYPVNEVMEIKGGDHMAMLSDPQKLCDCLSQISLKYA

[3] = molecular target: T2, CsMES1 V18S (Citrus sinensis, UniProt A0A067GV78, V18S); assay: biochemical; assay type: binding
T2 construct: gene CISIN_1g024065mg; optimized CsMES1 V18S synthetic gene in pET28a, recombinant from E. coli
T2 sequence (A0A067GV78 1-267 V18S): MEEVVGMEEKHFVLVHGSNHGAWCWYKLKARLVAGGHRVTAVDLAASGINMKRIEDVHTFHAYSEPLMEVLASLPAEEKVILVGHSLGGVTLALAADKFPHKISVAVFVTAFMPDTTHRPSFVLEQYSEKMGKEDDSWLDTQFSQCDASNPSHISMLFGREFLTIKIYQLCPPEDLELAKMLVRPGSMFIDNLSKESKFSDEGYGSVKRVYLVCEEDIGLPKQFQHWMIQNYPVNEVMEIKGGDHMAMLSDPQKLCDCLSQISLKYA

[4] = molecular target: T3, CsMES1 (Citrus sinensis, UniProt A0A067GV78); assay: ITC; also esterase inhibition (IC50 […] at […] MeSA); assay type: binding
T3 construct: gene CISIN_1g024065mg; recombinant CsMES1 (KDO79352) from pET28a in E. coli
T3 sequence (A0A067GV78 1-267): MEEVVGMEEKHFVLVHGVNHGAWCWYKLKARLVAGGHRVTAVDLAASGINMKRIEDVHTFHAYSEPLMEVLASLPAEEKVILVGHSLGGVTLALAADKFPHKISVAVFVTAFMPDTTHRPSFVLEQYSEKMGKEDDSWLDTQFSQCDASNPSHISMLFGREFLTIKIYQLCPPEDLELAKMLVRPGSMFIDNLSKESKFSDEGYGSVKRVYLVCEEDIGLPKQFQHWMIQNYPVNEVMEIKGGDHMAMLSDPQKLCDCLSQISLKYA

[5] = substrate: COC(=O)c1ccccc1O; assay: MeSA esterase kinetics, SA fluorescence (Km); assay type: biochemical, Citrus sinensis; conditions: active site

stoichiometry N [1]: 2
Molecule: Citrus sinensis salicylate methylesterase CsMES1 (recombinant, wild type) (enzyme)

Molecule: O=C(c1ccccc1)C(F)(F)F [TriFA, 2,2,2-Trifluoroacetophenone]
Kd [2]: ~300 nM | Kd [3]: ~300 nM | Kd [4]: 7100 nM

B1: CsMES1 (Citrus sinensis) (protein)
chain: MEEVVGMEEKHFVLVHGVNHGAWCWYKLKARLVAGGHRVTAVDLAASGINMKRIEDVHTFHAYSEPLMEVLASLPAEEKVILVGHSLGGVTLALAADKFPHKISVAVFVTAFMPDTTHRPSFVLEQYSEKMGKEDDSWLDTQFSQCDASNPSHISMLFGREFLTIKIYQLCPPEDLELAKMLVRPGSMFIDNLSKESKFSDEGYGSVKRVYLVCEEDIGLPKQFQHWMIQNYPVNEVMEIKGGDHMAMLSDPQKLCDCLSQISLKYA
notes: recombinant CsMES1 (KDO79352) from pET28a in E. coli
Km [5]: 48.9 ± 15.63 µM | kcat [5]: 0.38 ± 0.06 s⁻¹

B2: CsMES1 V18S (Citrus sinensis; V18S) (protein)
chain: MEEVVGMEEKHFVLVHGSNHGAWCWYKLKARLVAGGHRVTAVDLAASGINMKRIEDVHTFHAYSEPLMEVLASLPAEEKVILVGHSLGGVTLALAADKFPHKISVAVFVTAFMPDTTHRPSFVLEQYSEKMGKEDDSWLDTQFSQCDASNPSHISMLFGREFLTIKIYQLCPPEDLELAKMLVRPGSMFIDNLSKESKFSDEGYGSVKRVYLVCEEDIGLPKQFQHWMIQNYPVNEVMEIKGGDHMAMLSDPQKLCDCLSQISLKYA
notes: optimized CsMES1 V18S synthetic gene in pET28a, recombinant from E. coli
Km [5]: 16.1 ± 0.23 µM

B3: CsMES1 V18A (Citrus sinensis; V18A) (protein)
chain: MEEVVGMEEKHFVLVHGANHGAWCWYKLKARLVAGGHRVTAVDLAASGINMKRIEDVHTFHAYSEPLMEVLASLPAEEKVILVGHSLGGVTLALAADKFPHKISVAVFVTAFMPDTTHRPSFVLEQYSEKMGKEDDSWLDTQFSQCDASNPSHISMLFGREFLTIKIYQLCPPEDLELAKMLVRPGSMFIDNLSKESKFSDEGYGSVKRVYLVCEEDIGLPKQFQHWMIQNYPVNEVMEIKGGDHMAMLSDPQKLCDCLSQISLKYA
notes: as for B1
Km [5]: 11.7 ± 0.97 µM

— publication PMC6405950, “Structure-function relationship of a citrus salicylate methylesterase and role of salicylic acid in citrus canker resistance” (Scientific Reports, 2019)
